Assay results published in article PMC8385042.

Biological target: TIR domain of Toll-like receptor 1 (TLR1-TIR), residues 625-786 of human TLR1 (human) (UniProt Q15399)
Experiment: dynamic light scattering; 100 uM TLR1-TIR, 10 °C, cytoplasm-like buffer, threefold molar excess of ZnCl2 (1:3 protein to metal)

TIR domain of Toll-like receptor 1 (TLR1-TIR), residues 625-786 of human TLR1 (from UniProt Q15399 625-786) (domain or fragment)
stoichiometry N: 5
